Reference: the supplement of paper PMC11246515
± gives the standard deviation of the averaged measurements.

Assay: total protein half-life in vivo (active degradation + dilution); higher = more stable protein
[1] = E. coli NCM3722 delta-clpP delta-lon delta-hslV, growth: N-lim chemostat, doubling time 6 h
[2] = E. coli NCM3722 delta-clpP, growth: N-lim chemostat, doubling time 6 h
[3] = E. coli NCM3722 delta-hslV, growth: N-lim chemostat, doubling time 6 h
[4] = E. coli NCM3722 delta-lon, growth: N-lim chemostat, doubling time 6 h
[5] = E. coli NCM3722 delta-smpB, growth: N-lim chemostat, doubling time 6 h
[6] = wild type E. coli NCM3722, growth: C-lim chemostat, doubling time 3 h
[7] = wild type E. coli NCM3722, growth: C-lim chemostat, doubling time 6 h
[8] = wild type E. coli NCM3722, growth: C-lim chemostat, doubling time 12 h
[9] = wild type E. coli NCM3722, growth: N-lim chemostat, doubling time 6 h
[10] = wild type E. coli NCM3722, growth: N-lim chemostat, doubling time 12 h
[11] = wild type E. coli NCM3722, growth: P-lim chemostat, doubling time 6 h
[12] = wild type E. coli NCM3722, growth: P-lim chemostat, doubling time 12 h

Sequence	total protein half-life in vivo [1] [h]	total protein half-life in vivo [2] [h]	total protein half-life in vivo [3] [h]	total protein half-life in vivo [4] [h]	total protein half-life in vivo [5] [h]	total protein half-life in vivo [6] [h]	total protein half-life in vivo [7] [h]	total protein half-life in vivo [8] [h]	total protein half-life in vivo [9] [h]	total protein half-life in vivo [10] [h]	total protein half-life in vivo [11] [h]	total protein half-life in vivo [12] [h]
MPVITLPDGSQRHYDHAVSPMDVALDIGPGLAKACIAGRVNGELVDACDLIENDAQLSIITAKDEEGLEIIRHSCAHLLGHAIKQLWPHTKMAIGPVIDNGFYYDVDLDRTLTQEDVEALEKRMHELAEKNYDVIKKKVSWHEARETFANRGESYKVSILDENIAHDDKPGLYFHEEYVDMCRGPHVPNMRFCHHFKLMKTAGAYWRGDSNNKMLQRIYGTAWADKKALNAYLQRLEEAAKRDHRKIGKQLDLYHMQEEAPGMVFWHNDGWTIFRELEVFVRSKLKEYQYQEVKGPFMMDRVLWEKTGHWDNYKDAMFTTSSENREYCIKPMNCPGHVQIFNQGLKSYRDLPLRMAEFGSCHRNEPSGSLHGLMRVRGFTQDDAHIFCTEEQIRDEVNGCIRLVYDMYSTFGFEKIVVKLSTRPEKRIGSDEMWDRAEADLAVALEENNIPFEYQLGEGAFYGPKIEFTLYDCLDRAWQCGTVQLDFSLPSRLSASYVGEDNERKVPVMIHRAILGSMERFIGILTEEFAGFFPTWLAPVQVVIMNITDSQSEYVNELTQKLSNAGIRVKADLRNEKIGFKIREHTLRRVPYMLVCGDKEVESGKVAVRTRRGKDLGSMDVNEVIEKLQQEIRSRSLKQLEE [P0A8M3]	5.73 ± 0.81	5.78 ± 1.1	5.411 ± 0.034	6.36 ± 0.29	5.34 ± 0.06	3.18 ± 0.052	6.43 ± 0.58	11.3 ± 0.88	5.35 ± 0.11	9.648 ± 0.077	5.99 ± 0.14	13.3 ± 0.97
MDLNTLISQYGYAALVIGSLAEGETVTLLGGVAAHQGLLKFPLVVLSVALGGMIGDQVLYLCGRRFGGKLLRRFSKHQDKIERAQKLIQRHPYLFVIGTRFMYGFRVIGPTLIGASQLPPKIFLPLNILGAFAWALIFTTIGYAGGQVIAPWLHNLDQHLKHWVWLILVVVLVVGVRWWLKRRGKKKPDHQA	6.78						5.72			10.9	6.18	13.6
MQARVKWVEGLTFLGESASGHQILMDGNSGDKAPSPMEMVLMAAGGCSAIDVVSILQKGRQDVVDCEVKLTSERREEAPRLFTHINLHFIVTGRDLKDAAVARAVDLSAEKYCSVALMLEKAVNITHSYEVVAA [P0ADX1]	5.2 ± 0.18	5.55 ± 1.8	4.69 ± 0.32	5.8 ± 1.1	5.32 ± 0.37	> 4	6.49 ± 0.41	10.8 ± 3.3	4.88 ± 0.78	8.73 ± 0.8	5.45 ± 0.51	
MTPLLELKDIRRSYPAGDEQVEVLKGISLDIYAGEMVAIVGASGSGKSTLMNILGCLDKATSGTYRVAGQDVATLDADALAQLRREHFGFIFQRYHLLSHLTAEQNVEVPAVYAGLERKQRLLRAQELLQRLGLEDRTEYYPAQLSGGQQQRVSIARALMNGGQVILADEPTGALDSHSGEEVMAILHQLRDRGHTVIIVTHDPQVAAQAERVIEIRDGEIVRNPPAIEKVNVTGGTEPVVNTVSGWRQFVSGFNEALTMAWRALAANKMRTLLTMLGIIIGIASVVSIVVVGDAAKQMVLADIRSIGTNTIDVYPGKDFGDDDPQYQQALKYDDLIAIQKQPWVASATPAVSQNLRLRYNNVDVAASANGVSGDYFNVYGMTFSEGNTFNQEQLNGRAQVVVLDSNTRRQLFPHKADVVGEVILVGNMPARVIGVAEEKQSMFGSSKVLRVWLPYSTMSGRVMGQSWLNSITVRVKEGFDSAEAEQQLTRLLSLRHGKKDFFTWNMDGVLKTVEKTTRTLQLFLTLVAVISLVVGGIGVMNIMLVSVTERTREIGIRMAVGARASDVLQQFLIEAVLVCLVGGALGITLSLLIAFTLQLFLPGWEIGFSPLALLLAFLCSTVTGILFGWLPARNAARLDPVDALARE	6.72 ± 0.55	6.57 ± 0.25	6.77 ± 0.99	6.57 ± 1.3	5.95 ± 0.35	3.15 ± 0.084	5.92 ± 0.28	12.4 ± 0.29	6.2 ± 0.35	12.6 ± 0.13	6.45 ± 0.26	11.9 ± 0.64
MYKQAVILLLMLFTASVSAALPARYMQTIENAAVWAQIGDKMVTVGNIRAGQIIAVEPTAASYYAFNFGFGKGFIDKGHLEPVQGRQKVEDGLGDLNKPLSNQNLVTWKDTPVYNAPSAGSAPFGVLADNLRYPILHKLKDRLNQTWYQIRIGDRLAYISALDAQPDNGLSVLTYHHILRDEENTRFRHTSTTTSVRAFNNQMAWLRDRGYATLSMVQLEGYVKNKINLPARAVVITFDDGLKSVSRYAYPVLKQYGMKATAFIVTSRIKRHPQKWNPKSLQFMSVSELNEIRDVFDFQSHTHFLHRVDGYRRPILLSRSEHNILFDFARSRRALAQFNPHVWYLSYPFGGFNDNAVKAANDAGFHLAVTTMKGKVKPGDNPLLLKRLYILRTDSLETMSRLVSNQPQG	5.86 ± 0.059	5.98 ± 0.23	5.24 ± 0.3		5.73 ± 0.38		4.78	12.5	5.58 ± 0.86	11.6 ± 3	5.64	12.4
MERCGWVSQDPLYIAYHDNEWGVPETDSKKLFEMICLEGQQAGLSWITVLKKRENYRACFHQFDPVKVAAMQEEDVERLVQDAGIIRHRGKIQAIIGNARAYLQMEQNGEPFVDFVWSFVNHQPQVTQATTLSEIPTSTSASDALSKALKKRGFKFVGTTICYSFMQACGLVNDHVVGCCCYPGNKP	5.26 ± 0.55	2.52 ± 0.12	2.48 ± 0.17	4.36 ± 0.28	1.72 ± 0.98		1.68	3.77 ± 2	2.53 ± 0.58	3.37		
MKYLASFRTTLKASRYMFRALALVLWLLIAFSSVFYIVNALHQRESEIRQEFNLSSDQAQRFIQRTSDVMKELKYIAENRLSAENGVLSPRGRETQADVPAFEPLFADSDCSAMSNTWRGSLESLAWFMRYWRDNFSAAYDLNRVFLIGSDNLCMANFGLRDMPVERDTALKALHERINKYRNAPQDDSGSNLYWISEGPRPGVGYFYALTPVYLANRLQALLGVEQTIRMENFFLPGTLPMGVTILDENGHTLISLTGPESKIKGDPRWMQERSWFGYTEGFRELVLKKNLPPSSLSIVYSVPVDKVLERIRMLILNAILLNVLAGAALFTLARMYERRIFIPAESDALRLEEHEQFNRKIVASAPVGICILRTADGVNILSNELAHTYLNMLTHEDRQRLTQIICGQQVNFVDVLTSNNTNLQISFVHSRYRNENVAICVLVDVSSRVKMEESLQEMAQAAEQASQSKSMFLATVSHELRTPLYGIIGNLDLLQTKELPKGVDRLVTAMNNSSSLLLKIISDILDFSKIESEQLKIEPREFSPREVMNHITANYLPLVVRKQLGLYCFIEPDVPVALNGDPMRLQQVISNLLSNAIKFTDTGCIVLHVRADGDYLSIRVRDTGVGIPAKEVVRLFDPFFQVGTGVQRNFQGTGLGLAICEKLISMMDGDISVDSEPGMGSQFTVRIPLYGAQYPQKKGVEGLSGKRCWLAVRNASLCQFLETSLQRSGIVVTTYEGQEPTPEDVLITDEVVSKKWQGRAVVTFCRRHIGIPLEKAPGEWVHSVAAPHELPALLARIYLIEMESDDPANALPSTDKAVSDNDDMMILVVDDHPINRRLLADQLGSLGYQCKTANDGVDALNVLSKNHIDIVLSDVNMPNMDGYRLTQRIRQLGLTLPVIGVTANALAEEKQRCLESGMDSCLSKPVTLDVIKQTLTLYAERVRKSRDS [P0DMC5]		6.287 ± 0.034	5.76 ± 0.49	6.22 ± 0.067	5.88 ± 0.48	2.98 ± 0.21	6.119 ± 0.024	13.1 ± 2.3	6.01 ± 0.37	11.6 ± 0.28	6.1 ± 0.12	11.8 ± 0.82
